One experiment deals with T1, human α9 integrin (human, UniProt Q13797 30-1035).
T1 sequence: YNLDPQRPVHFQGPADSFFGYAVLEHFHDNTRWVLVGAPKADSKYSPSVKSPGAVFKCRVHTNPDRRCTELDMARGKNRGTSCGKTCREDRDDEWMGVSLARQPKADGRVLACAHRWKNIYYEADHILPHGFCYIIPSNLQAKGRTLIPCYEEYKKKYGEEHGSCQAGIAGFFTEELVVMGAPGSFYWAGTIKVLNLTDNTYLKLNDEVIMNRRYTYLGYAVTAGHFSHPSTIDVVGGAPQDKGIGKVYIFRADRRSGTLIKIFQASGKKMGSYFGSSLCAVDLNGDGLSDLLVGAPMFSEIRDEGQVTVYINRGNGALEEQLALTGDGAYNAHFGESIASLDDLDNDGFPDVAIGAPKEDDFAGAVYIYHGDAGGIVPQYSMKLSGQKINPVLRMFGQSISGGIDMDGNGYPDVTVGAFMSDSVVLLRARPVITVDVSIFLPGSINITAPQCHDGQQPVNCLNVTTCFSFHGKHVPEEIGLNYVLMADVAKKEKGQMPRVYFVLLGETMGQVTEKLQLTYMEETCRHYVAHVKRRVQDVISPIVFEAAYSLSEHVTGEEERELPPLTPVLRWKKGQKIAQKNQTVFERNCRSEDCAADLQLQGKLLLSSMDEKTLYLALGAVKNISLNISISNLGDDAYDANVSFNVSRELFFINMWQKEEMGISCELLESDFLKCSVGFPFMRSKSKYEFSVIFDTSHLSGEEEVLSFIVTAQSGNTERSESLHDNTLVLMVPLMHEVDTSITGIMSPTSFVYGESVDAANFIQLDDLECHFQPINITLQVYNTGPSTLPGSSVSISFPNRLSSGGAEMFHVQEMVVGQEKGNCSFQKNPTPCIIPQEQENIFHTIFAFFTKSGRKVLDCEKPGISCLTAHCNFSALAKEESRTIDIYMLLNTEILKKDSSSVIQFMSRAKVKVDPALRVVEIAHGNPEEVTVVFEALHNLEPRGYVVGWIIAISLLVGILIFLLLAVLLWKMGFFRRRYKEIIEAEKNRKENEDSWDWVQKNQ
As to the kind of experiment: cell-based or functional assay.

For the next experiment, the target named is T2, mouse α9 integrin (mouse, UniProt B8JK39 29-1036).
T2 chain: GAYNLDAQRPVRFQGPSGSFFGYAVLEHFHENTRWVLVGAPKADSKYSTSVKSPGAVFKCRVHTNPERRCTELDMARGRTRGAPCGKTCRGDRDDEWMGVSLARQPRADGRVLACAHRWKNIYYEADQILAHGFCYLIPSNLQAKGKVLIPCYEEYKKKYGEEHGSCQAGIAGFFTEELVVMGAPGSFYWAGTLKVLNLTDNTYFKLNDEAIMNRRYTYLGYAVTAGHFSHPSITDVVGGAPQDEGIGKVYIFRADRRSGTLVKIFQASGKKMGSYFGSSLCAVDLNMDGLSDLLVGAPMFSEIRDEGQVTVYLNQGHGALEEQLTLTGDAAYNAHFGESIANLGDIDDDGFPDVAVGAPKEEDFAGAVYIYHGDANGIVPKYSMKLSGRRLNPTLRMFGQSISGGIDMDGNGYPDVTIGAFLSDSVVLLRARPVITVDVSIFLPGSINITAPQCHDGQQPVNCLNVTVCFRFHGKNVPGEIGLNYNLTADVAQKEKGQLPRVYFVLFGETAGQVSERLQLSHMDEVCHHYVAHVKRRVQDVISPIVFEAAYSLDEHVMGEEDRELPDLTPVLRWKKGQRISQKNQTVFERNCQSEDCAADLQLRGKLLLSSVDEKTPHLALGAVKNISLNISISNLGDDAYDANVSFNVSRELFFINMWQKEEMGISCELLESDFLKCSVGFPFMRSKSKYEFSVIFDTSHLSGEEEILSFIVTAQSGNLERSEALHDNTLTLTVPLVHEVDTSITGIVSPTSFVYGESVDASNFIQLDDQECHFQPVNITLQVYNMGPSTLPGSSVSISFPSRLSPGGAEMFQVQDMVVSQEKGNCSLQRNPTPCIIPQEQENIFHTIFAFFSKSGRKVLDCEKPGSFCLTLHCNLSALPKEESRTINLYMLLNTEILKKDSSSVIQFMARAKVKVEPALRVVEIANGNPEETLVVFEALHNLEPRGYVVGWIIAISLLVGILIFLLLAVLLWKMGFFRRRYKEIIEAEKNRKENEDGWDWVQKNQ
Briefly: cell-based or functional assay.

The results in this text go back to US20110014213A1 (JURIDICAL FDN THE CHEMO SERO THERAP RES INS, published 2011).

B1: MA9-413 scFv-Fc (Fc fusion)
scFv: EVQLVESGGGVVRPGGSLRLSCAASGFAFGDYGMSWVRQAPGKGLEWVSGINWNGGSTGYADSVKGRFTTSRDNAKNSLYLQMNSLRAEDTALYYCARDENYDILTGYYYYGMDVWGQGTTVTVSSGGGGSGGGGSGGGGSQSVVTQPPSVSAAPGQKVTISCSGSSSNIGNNYVSWYQQLPGTAPKLLIYDNNKRPSGIPDRFSASKSGTSATLGITGLQTGDEADYYCGTWDSSLTVWAFGGGTKLTVLG
notes: Divalent scFv-Fc with mouse IgG1 Fc, expressed in CHO-DG44; also called ANM-2; not shown: Fc region of mouse IgG1 and its junction to the scFv
For the molecule B1, the “IC50 of inhibition of α9-dependent cell adhesion” value with human α9 integrin was 48.5 mg/L; in the experiment with mouse α9 integrin, 0.34 mg/L.
